Positions count from the first letter of the chain named.
B1: Antibody 2 scFv (scFv, V domains shown)
VH: EVQLVQSGGGLIQPGGSLRLSCAASGFTISSNYMTWVRQAPGKGLEWVSDLYYYAGDTYYADSVRGRFTMSRDISKNTVYLQMDSLRAEDTGVYYCARWADGHYYYIDVWGGGTLVTVSS
VL: DIVMTQSPSTLSASVGDRVTITCRASQGISSWLTWYQQKPGRAPKVLIYKASTLESGVPSRFSGSGSGTDFTLTISSLQPEDFATYYCQQSYSAPWTFGQGTKLELKR
notes: Non-germlined; also called Ab 2; not shown: scFv linker, domain order and any purification tags
B2: Antibody 4 scFv (scFv, V domains shown)
VH: B1 VH with I29V, R65K, D84N, I107A, G112R, T117S
VL: B1 VL with T34A, T85S
notes: Non-germlined; also called Ab 4; not shown: scFv linker, domain order and any purification tags
B3: Antibody 2 IgG (antibody, V domains shown)
VH: B1 VH
VL: B1 VL
notes: Non-germlined; also called Ab 2
B4: Antibody 4 IgG (antibody, V domains shown)
VH: B1 VH with I29V, R65K, D84N, I107A, G112R, T117S
VL: B1 VL with T34A, T85S
notes: Non-germlined; IgG1 with human heavy chain and kappa constant domains; also called Ab 4
B5: Antibody 3 IgG (antibody, V domains shown)
VH: B1 VH with E1Q, T35V, R65K, M70V, D84N, G102D, Y106H, G112R
VL: B1 VL with T34A, V46A, A94T, L106I
notes: Non-germlined; IgG1 with human heavy chain and kappa constant domains; also called Ab 3
B6: Antibody 3 scFv (scFv, V domains shown)
VH: B1 VH with E1Q, T35V, R65K, M70V, D84N, G102D, Y106H, G112R
VL: B1 VL with T34A, V46A, A94T, L106I
notes: Non-germlined; also called Ab 3; not shown: scFv linker, domain order and any purification tags
B7: Antibody 5 IgG (antibody, V domains shown)
VH: B1 VH with T35I, R65K, D84N, I107A, G112R, T117S
VL: B1 VL with S9P, T34A, T85S, L106I
notes: Non-germlined; IgG1 with human heavy chain and kappa constant domains; also called Ab 5
B8: Antibody 5 scFv (scFv, V domains shown)
VH: B1 VH with T35I, R65K, D84N, I107A, G112R, T117S
VL: B1 VL with S9P, T34A, T85S, L106I
notes: Non-germlined; also called Ab 5; not shown: scFv linker, domain order and any purification tags
B9: Antibody 16 IgG (antibody, V domains shown)
VH: B1 VH with T35I, R65K, D84N, G102D, Y104P, Y105P, V109L, G112R
VL: DIVMTQSPSTLSASVGDRVTITCRASQGISSWLAWYQQKPGRAPKVLIYKASTLESGVPSRFSGSGSGTDFTLTISSLQPEDFATYYCQQSWLGGSFGQGTKLEIKR
B10: Antibody 19 IgG (antibody, V domains shown)
VH: B1 VH with T35I, R65K, D84N, G102D, Y104P, Y105S, Y106H, I107L, V109I, G112R
VL: B9 VL
B11: Antibody 23 IgG (antibody, V domains shown)
VH: B1 VH with T35I, R65K, D84N, G102D, Y104A, Y105P, Y106W, I107V, V109L, G112R
VL: B9 VL
B12: Antibody 8 IgG (antibody, V domains shown)
VH: B1 VH with T35I, R65K, D84N, G102D, Y104P, Y105R, V109H, G112R
VL: B9 VL
B13: Antibody 14 IgG (antibody, V domains shown)
VH: EVQLVQSGGGLIQPGGSLRLSCAASGFTISSNYMIWVRQAPGKGLEWVSDLYYYAGDTYYADSVKGRFTMSRDISKNTVYLQMNSLRAEDTGVYYCARWADDHNYPHIDVWGRGTLVTVSS
VL: B1 VL with T34A, Q89A, Q90A, S91H, S93A, L106I
B14: Antibody 7 (GL) IgG (antibody, V domains shown)
VH: EVQLVESGGGLVQPGGSLRLSCAASGFTISSNYMIWVRQAPGKGLEWVSDLYYYAGDTYYADSVKGRFTMSRDISKNTVYLQMNSLRAEDTAVYYCARWADDHPAWVDLWGRGTLVTVSS
VL: B9 VL with V3Q, R42K, D70E, E81D
notes: Germlined IgG1 with human kappa constant domain; also called Ab 7
B15: Antibody 17 (GL) IgG (antibody, V domains shown)
VH: B14 VH with A105P, W106Y, V107I, L109M
VL: B9 VL with V3Q, R42K, D70E, E81D
B16: Antibody 10 (GL) IgG (antibody, V domains shown)
VH: B14 VH with A100E, D101E, D102E, H103G, P104R, A105G, W106Y, V107I, L109V
VL: B9 VL with V3Q, R42K, D70E, E81D
B17: Antibody 18 (GL) IgG (antibody, V domains shown)
VH: B14 VH with A105P, V107I
VL: B9 VL with V3Q, R42K, D70E, E81D
notes: Germlined IgG1/kappa; also called Ab 18
B18: CAN022D10 scFv (scFv, V domains shown)
VH: B1 VH with T35I, R65K, D84N, G102D, G112R
VL: B1 VL with T34A, A94T, L106I
notes: Purified scFv from bacteria; also called CAN22D10; parent; not shown: scFv linker, domain order and any purification tags
B19: Cynomolgus IL-6 (ligand, UniProt P79341 28-212, looked up)
chain: APVLPGEDSKDVAAPHSQPLTSSERIDKHIRYILDGISALRKETCNRSNMCESSKEALAENNLNLPKMAEKDGCFQSGFNEDTCLVKIITGLLEFEVYLEYLQNRFESSEEQARAVQMSTKVLIQFLQKKAKNLDAITTPEPTTNASLLTKLQAQNQWLQDMTTHLILRSFKEFLQSSLRALRQM
notes: mature; also called cyno IL-6; macaque IL-6

These binders were tested against T1, Mature human IL-6 (human, UniProt P05231 30-212) (assay: cell-based or functional assay).
Target sequence in this assay (P05231 30-212): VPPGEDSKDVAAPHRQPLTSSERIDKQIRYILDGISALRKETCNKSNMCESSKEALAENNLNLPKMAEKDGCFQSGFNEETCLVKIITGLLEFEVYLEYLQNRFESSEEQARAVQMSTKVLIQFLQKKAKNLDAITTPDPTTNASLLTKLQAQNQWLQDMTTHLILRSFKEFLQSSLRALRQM

| IC50, TF-1 Proliferation Assay | Binder |
| --- | --- |
| 9600 pM | B1 |
| 13400 pM | B2 |
| 16 pM | B3 |
| 61 pM | B4 |
| 50 pM | B5 |
| 7300 pM | B6 |
| 42 pM | B7 |
| 12400 pM | B8 |

Target: T1, Mature human IL-6
Assay: cell-based or functional assay
Remark: another data set of the same source
Target sequence in this assay (P05231 30-212): as above

| IC50, TF-1 cell proliferation assay | Binder |
| --- | --- |
| 4.9 pM | B9 |
| 68 pM | B10 |
| 20 pM | B11 |
| 48 pM | B12 |
| 31 pM | B13 |

Target: T1, Mature human IL-6
Assay: cell-based or functional assay
Remark: another data set of the same source
Target sequence in this assay (P05231 30-212): as above

| IC50, IL-6 induced TF-1 cell proliferation assay | Binder |
| --- | --- |
| 5 pM | B14 |
| 1 pM | B15 |
| 71 pM | B16 |
| 3 pM | B17 |

Target: T1, Mature human IL-6
Assay: cell-based or functional assay
Remark: another data set of the same source
Target sequence in this assay (P05231 30-212): as above

| IC50, endogenous IL-6 induced synovial fibroblast VEGF release assay | Binder |
| --- | --- |
| 750 pM | B14 |
| 570 pM | B15 |
| 550 pM | B16 |
| 930 pM | B17 |
| 590 pM | B3 |
| 520 pM | B4 |
| 380 pM | B5 |
| 700 pM | B7 |

Target: T1, Mature human IL-6
Assay: cell-based or functional assay
Remark: another data set of the same source

| Mean IC50, inhibition of IL-6 induced IgM secretion from SKW6.4 cells, n=3 | Binder |
| --- | --- |
| 2.64 pM | B14 |
| 3.21 pM | B15 |
| 2.63 pM | B17 |

Each binder was assayed against T1, Mature human IL-6 (assay: SPR, BIAcore 2000; IgG amine-coupled to CM5 chip, IL-6 as analyte).
Description: (§1) Human and cynomolgus IL-6 at a range of concentrations between 200 nM and 0.2 nM in HBS-EP buffer were passed over the sensor chip surface. The resulting sensorgrams were evaluated using BIA evaluation 3.1 software to provide relative binding data.
(§2) BIAcore studies were undertaken using a BIAcore 2000™. […] Human IL-6 at a range of concentrations between 200 nM and 0.2 nM in HBS-EP buffer were passed over the sensor chip surface. The resulting sensorgrams were evaluated using BIA evaluation 3.1 software to calculate the kₒₙ, koff and KD values for the antibodies tested.

| Kd | Binder |
| --- | --- |
| < 10 pM | B14 |
| < 10 pM | B17 |

Each binder was assayed against B19 in the same assay as above.
Description: as §1, §2

| Kd | Binder |
| --- | --- |
| < 10 pM | B14 |
| < 10 pM | B17 |

What follows are binders tested against T2, HIS FLAG tagged human IL-6 (human, UniProt P05231 30-212) (assay: HTRF antibody-ligand competition; competitor biotinylated CAN022D10 IgG).
T2 construct: In house; also called HIS FLAG IL-6; HIS/FLAG IL-6
Description: (§3) Crude scFv preparations from a representative number of individual clones for the round 3 and round 4 outputs were screened for their inhibitory activity in a CAN022D10 IgG-IL-6 HTRF® binding assay. In this assay, binding of biotinyated antibody and FLAG-tagged IL-6 was detected using cryptate labelled anti-FLAG monoclonal antibody and streptavidin XL^{ent!}™. The detailed assay method is provided in the Materials and Methods section.
(§4) The IC₅₀ value for each scFv was then calculated from data obtained by a testing dilution series of the purified sample in the HTRF antibody-ligand biochemical assay and TF-1 proliferation assay.
Target sequence in this assay (P05231 other isoform, or with tags, fused parts or gaps): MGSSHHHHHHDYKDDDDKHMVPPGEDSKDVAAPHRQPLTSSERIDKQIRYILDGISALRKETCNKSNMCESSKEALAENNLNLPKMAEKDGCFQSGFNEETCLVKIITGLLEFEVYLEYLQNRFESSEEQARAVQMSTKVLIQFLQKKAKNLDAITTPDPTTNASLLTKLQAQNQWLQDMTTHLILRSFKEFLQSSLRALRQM

| IC50 | Binder |
| --- | --- |
| 35 pM | B1 |
| 24 pM | B2 |
| 22 pM | B6 |
| 65 pM | B8 |

These binders were tested against T2, HIS FLAG tagged human IL-6 (assay: HTRF receptor-ligand competition; HIS FLAG human IL-6 vs biotinylated sIL-6R).
Description: Unique scFvs were expressed again in bacteria and purified by affinity chromatography (as described by Bannister et al. Purified IgG samples of these clones were also prepared as described in section 1.3. The potencies of these samples were determined by competing a dilution series of the purified preparation against biotinylated sIL-6R for binding to HIS FLAG tagged human IL-6 (in house E. coli derived).
Purified scFv and IgG from positive clones identified from screening were tested in a HTRF® assay for inhibition of binding of HIS FLAG tagged human IL-6 to biotinylated IL-6R. 8 nM biotinylated human IL-6R was pre-incubated for 30 minutes at room temperature in the dark, with 8 nM streptavidin XL^{ent!}™. All dilutions were done in phosphate buffered saline (PBS) containing 0.4 M potassium fluoride and 0.1% BSA (assay buffer).

| IC50 | Binder |
| --- | --- |
| 45000 pM | B18 |

The binders below were run against T3, CAN022D10 IgG (assay: DELFIA epitope competition; protein titrated against biotinylated HIS FLAG IL-6 on immobilised CAN022D10 IgG).
T3 construct: Biotinylated in the HTRF antibody-ligand assay; also called CAN22D10; parent IgG
Description: Titrations of IL-6 species including cynomolgus (in house E. Coli derived), human HIS FLAG IL-6 (in house HEK-EBNA derived), rat and murine IL-6 (both R & D Systems) were tested in each assay to establish the species cross-reactivity of the antibodies. Details of the protocol are provided in the Materials and Methods section.
Purified IgG were adsorbed onto 96-well Maxisorp microtitre plates (Nunc) in PBS at a concentration which gave a significant signal when biotinylated human IL-6 was added at approximately its estimated Kd for that particular IgG. Excess IgG was washed away with PBS-Tween (0.1% v/v) and the wells were blocked with PBS-Marvel (3% w/v) for 1 h. […] These mixtures were then transferred onto the blocked IgG and allowed to equilibrate for 1.5 h. Unbound antigen was removed by washing with PBS-Tween (0.1% v/v), while the remaining biotinylated human IL-6 was detected by streptavidin-Europium3+ conjugate (DELFIA® detection, PerkinElmer). Time-resolved fluorescence was measured at 620 nm on an EnVision plate reader (PerkinElmer). Fluorescence data was converted to % specific binding (100% was determined from control wells containing biotinylated human IL-6 but no competitor, 0% was from wells containing biotinylated human IL-6 and a 100-fold excess of unbiotinylated human IL-6). Resultant data were analysed using Prism curve fitting software (Graphpad) to determine IC50 values according to Equation 3.

| IC50 | Binder |
| --- | --- |
| ~100000 pM | B19 |

The binders below were run against T2, HIS FLAG tagged human IL-6 (assay: HTRF antibody-ligand competition; competitor biotinylated CAN022D10 IgG; protocol modified for IgG (footnote)).
Description: as §3, §4
Target sequence in this assay (P05231 other isoform, or with tags, fused parts or gaps): as above

| IC50 | Binder |
| --- | --- |
| 36 pM | B3 |
| 43 pM | B4 |
| 43 pM | B5 |
| 26 pM | B7 |

Source: patent publication US20150197568A1 (AstraZeneca / MedImmune, published 2015)
